In publication PMC4499151, “Identifying high-affinity aptamer ligands with defined cross-reactivity using high-throughput guided systematic evolution of ligands by exponential enrichment”:

T1: human IL-10RA-Fc fusion (human, UniProt Q13651 22-235)
T1 sequence: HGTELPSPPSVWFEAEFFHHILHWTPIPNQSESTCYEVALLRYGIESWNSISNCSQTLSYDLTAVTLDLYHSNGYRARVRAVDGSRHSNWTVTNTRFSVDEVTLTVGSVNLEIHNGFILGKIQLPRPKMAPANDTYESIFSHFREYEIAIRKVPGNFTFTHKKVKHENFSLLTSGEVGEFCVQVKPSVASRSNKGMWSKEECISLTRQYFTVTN


What was measured:
human IgG (human) = assay: filter binding; settings: Double filter binding, 37 C, binding buffer not detailed, selection buffer 20 mM HEPES, 2 mM CaCl2, 0.1 mg/ml BSA, 100-150 mM NaCl, pH 7.5
human IL-10RA-Fc fusion = target: T1, human IL-10RA-Fc fusion; assay: filter binding; Double filter binding, 37 C, binding buffer not detailed; selection buffer 20 mM HEPES, 2 mM CaCl2, 0.1 mg/ml BSA, 100-150 mM NaCl, pH 7.5; settings: protein: commercial; tags: Fc fusion; chain copies: 2; label: 5' 32P

| Molecule | Kd (human IgG (human)) [nM] | further results |
| --- | --- | --- |
| GGGAGAGAGGAAGAGGGAUGGGUGCUCAAUUAAGAACCAUCGCUCUCCGGUGCGACGACUCGCUGAGAUCGAGA [RJB#25] | > 1000 | – |
| GGGAGAGAGGAAGAGGGAUGGGAGCCAUGACGAUGUCGUUACGUAGAUGCAGAGACUCCUAACGACGACUCGCUGAGAUCGAGA [411-J] | > 500 | – |
| GGGAGAGAGGAAGAGGGAUGGGUGCUCACAAACGUGAACCAUCGUCUUGUGCCGACGACUCGCUGAGAUCGAGA [RJB#23] | > 1000 | – |
| GGGAGAGAGGAAGAGGGAUGGGUGCUCAUCUUGAACGCAUUGUUUCUCCGUGCGACGACUCGCUGAGAUCGAGA [RJB#31] | > 500 | – |
| GGGAGAGAGGAAGAGGGAUGGGUGCUCGUUUCGAACCAUCGUAACUCCUGUGCGACGACUCGCUGAGAUCGAGA [RJB#161] | > 1000 | – |
| GGGAGAGAGGAAGAGGGAUGGGUGCUUCAUAGAAACGCGCGAUCUUCCUGUGCGACGACUCGCUGAGAUCGAGA [RJB#44] | > 1000 | – |
| GGGAGAGAGGAAGAGGGAUGGGUGCUCACAUACGUGAACCAUCGUCAAUGGCCGACGACUCGCUGAGAUCGAGA [RJB#10] | > 1000 | – |
| GGGAGAGAGGAAGAGGGAUGGGCGUCUCGUCAAUGCCCUACGUUUGUCUGUGCGACGACUCGCUGAGAUCGAGA [RJB#13] | > 1000 | – |
| GGGAGAGAGGAAGAGGGAUGGGAAAGACCGUUUUUUAAAACGCUCAAUAUACACGACAUAAACGACGACUCGCUGAGAUCGAGA [446 (#3)] | > 500 | – |
| GGGAGAGAGGAAGAGGGAUGGGAAUCGCUCAGCCGGUCCGGAACUGGCAAAGUCAGGUGCUCCGACGACUCGCUGAGAUCGAGA [405 (cluster E)] | – | Kd (human IgG (human); column inferred from text): 120 nM |
| GGGAGAGAGGAAGAGGGAUGGGUGCUCCUACUGUGGAACCAUCGUUCUUGUGCGACGACUCGCUGAGAUCGAGA [RJB#17] | > 1000 | – |
| 411-J-A1G (ssRNA) RNA: GGGAGAGAGGAAGAGGGAUGGGGGCCAUGACGAUGUCGUUACGUAGAUGCAGAGACUCCUAACGACGACUCGCUGAGAUCGAGA | – | Kd (human IL-10RA-Fc fusion): 9 nM |
| 411-J-G30T (ssRNA) RNA: GGGAGAGAGGAAGAGGGAUGGGAGCCAUGACGAUGUCGUUACGUAGAUGCAUAGACUCCUAACGACGACUCGCUGAGAUCGAGA | – | Kd (human IL-10RA-Fc fusion): 18 nM |
| 411-J-G7T (ssRNA) RNA: GGGAGAGAGGAAGAGGGAUGGGAGCCAUUACGAUGUCGUUACGUAGAUGCAGAGACUCCUAACGACGACUCGCUGAGAUCGAGA | – | Kd (human IL-10RA-Fc fusion): 18 nM |
| 411-J-C28T (ssRNA) RNA: GGGAGAGAGGAAGAGGGAUGGGAGCCAUGACGAUGUCGUUACGUAGAUGUAGAGACUCCUAACGACGACUCGCUGAGAUCGAGA | – | Kd (human IL-10RA-Fc fusion): 18 nM |
